Measurements as given in patent publication US20230002466A1 (ELPIS BIOPHARMACEUTICALS, published 2023).
Where a chain is given by its changes, count along the chain named. Names may count otherwise.

T1: human IL2Rβ (human, UniProt P14784 27-239)
T1 construct: also called IL2β; CD122
T1 sequence (looked up): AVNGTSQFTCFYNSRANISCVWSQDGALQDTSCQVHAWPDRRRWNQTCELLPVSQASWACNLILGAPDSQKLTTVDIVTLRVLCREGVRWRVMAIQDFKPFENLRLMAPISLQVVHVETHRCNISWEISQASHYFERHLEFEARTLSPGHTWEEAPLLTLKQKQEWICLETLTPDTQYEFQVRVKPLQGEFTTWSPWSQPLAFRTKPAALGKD

T2: human IL2Rα (human, UniProt P01589 22-213, limits assumed)
T2 construct: also called IL2α; CD25
T2 sequence (looked up): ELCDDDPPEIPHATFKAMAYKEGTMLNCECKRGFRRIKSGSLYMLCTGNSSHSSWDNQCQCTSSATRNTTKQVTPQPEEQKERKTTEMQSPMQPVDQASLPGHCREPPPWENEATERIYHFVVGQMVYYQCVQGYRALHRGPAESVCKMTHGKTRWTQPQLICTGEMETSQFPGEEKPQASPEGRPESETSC

B1: EP080 (Fc fusion)
chain: APTSSSTKETQLQLKHLLLDLQMILNGINNYKNPKLTRMLTFKFYMPKKATELKHLQCLEEELKPLEEVLNLAQSKNFHLKWGDAVSNARVLAGALKGSETTFMCEYADETATIVEFLNRWITFCQSIISTLTEPKSCDKTHTCPLCPAPEAAGGPSVFLFPPKPKDTLMISRTPEVTCVVVDVSHEDPEVKFNWYVDGVEVHNAKTKPREEQYNSTYRVVSVLTVLHQDWLNGKEYKCKVSNKALGAPIEKTISKAKGQPREPQVYTLPPSRDELTKNQVSLTCLVKGFYPSDIAVEWESNGQPENNYKATPPVLDSDGSFFLYSKLTVDKSRWQQGNVFSCSVMHEALHNHYTQKSLSLSPGK
B2: EP001-Fc, Bivalent (EP079) (Fc fusion)
chain: APTSSSTKKTQLQLEHLLLDLQMILNGINNYKNPKLTRMLTFKFYMPKKATELKHLQCLEEELKPLEEVLNLAQSKNFHLTARDAVDNMRVIIQELKGSETTFMCEYADETATIVEFLNRWITFCQSIISTLTEPKSCDKTHTCPLCPAPEAAGGPSVFLFPPKPKDTLMISRTPEVTCVVVDVSHEDPEVKFNWYVDGVEVHNAKTKPREEQYNSTYRVVSVLTVLHQDWLNGKEYKCKVSNKALGAPIEKTISKAKGQPREPQVYTLPPSRDELTKNQVSLTCLVKGFYPSDIAVEWESNGQPENNYKATPPVLDSDGSFFLYSKLTVDKSRWQQGNVFSCSVMHEALHNHYTQKSLSLSPGK
notes: Human IgG1 with L234A, L235A, P329G
B3: EP083 (Fc fusion)
chain: APTSSSTKKTQLQLEHLLLDLQMILNGINNYKNPKLTEMLTFKFYMPKKATELKHLQCLEEELKPLEEVLNLAQSKNFHLEPSDVISNINVLVQELKGSETTFMCEYADETATIVEFLNRWITFCQSIISTLTEPKSCDKTHTCPLCPAPEAAGGPSVFLFPPKPKDTLMISRTPEVTCVVVDVSHEDPEVKFNWYVDGVEVHNAKTKPREEQYNSTYRVVSVLTVLHQDWLNGKEYKCKVSNKALGAPIEKTISKAKGQPREPQVYTLPPSRDELTKNQVSLTCLVKGFYPSDIAVEWESNGQPENNYKATPPVLDSDGSFFLYSKLTVDKSRWQQGNVFSCSVMHEALHNHYTQKSLSLSPGK
B4: EP084 (Fc fusion)
chain: B3 chain with E38R, E81T, P82A, S83E, I86V, S87T, N90T
B5: EP003-Fc, Bivalent (EP082) (Fc fusion)
chain: B3 chain with E38R, E81G, P82V, S83T, V85S, I89A, N90I, V93A, Q94R
notes: as for B2
B6: EP004-Fc, Bivalent (EP078) (Fc fusion)
chain: B3 chain with E38R, E81C, S83T, V85T, S87E, N90T, V93I
notes: as for B2
B7: EP081 (Fc fusion)
chain: ATPTSSSTKKTQLQLEHLLLDLQMILNGINNYKNPKLTRMLTFKFYMPKKATELKHLQCLEEELKPLEEVLNLAQSKNFHLGVGDTIDNINVLVKELKGSETTFMCEYADETATIVEFLNRWITFCQSIISTLTEPKSCDKTHTCPLCPAPEAAGGPSVFLFPPKPKDTLMISRTPEVTCVVVDVSHEDPEVKFNWYVDGVEVHNAKTKPREEQYNSTYRVVSVLTVLHQDWLNGKEYKCKVSNKALGAPIEKTISKAKGQPREPQVYTLPPSRDELTKNQVSLTCLVKGFYPSDIAVEWESNGQPENNYKATPPVLDSDGSFFLYSKLTVDKSRWQQGNVFSCSVMHEALHNHYTQKSLSLSPGK
B8: EP108 (ligand)
chain: APTSSSTKKTQLQLEHLLLDLQMILNGINNYKNPKLTRMLTHKFVMPKKATELKHLQCLEEELKPLEEVLNLAQSKNFHLRPRDLISNINVIVLELKGSETTFMCEYADETATIVEFLNRWITFSQSIISTLT
B9: EP119 (ligand)
chain: B8 chain with R38G, H42F, V45S
B10: EP105 (ligand)
chain: B8 chain with K35E, R38I, H42P, V45Y
B11: EP115 (ligand)
chain: B8 chain with I28L, R38S, H42F, V45S
B12: EP113 (ligand)
chain: B8 chain with R38Y, H42R, V45Y
B13: EP226 (ligand)
chain: APTSSSTKKTQLQLEHLLLDLQMILNGINNYKNPKLTRMLTAKFYMPKKATELKHLQCLEEELKPLEEVLNLAQSKNFHLGVTDSISNAIVLARELKGSETTFMCEYADETATIVEFLNRWITFSQSIISTLTGSHHHHHH
B14: EP002 (ligand)
chain: B8 chain with H42F, V45Y, R81E, R83S, L85V, I92L, L94Q, S125C
notes: also called E002; not shown: C-terminal Flag and 6xHis tags
B15: EP005 (ligand)
chain: APTSSSTKKTQLQLEHLLLDLQMILNGINNYKNPKLTRMLTFKFYMPKKATELKHLQCLEEELKPLEEVLNLAQSKNFHLTAEDVVTNITVLVQELKGSETTFMCEYADETATIVEFLNRWITFCQSIISTLT
notes: not shown: C-terminal Flag and 6xHis tags
B16: EP006 (ligand)
chain: B15 chain with T81G, A82V, E83G, V85T, V86I, T87D, T90N, Q94K
notes: also called EPIM-06; not shown: C-terminal Flag and 6xHis tags

Biological target: T1, human IL2Rβ
Test: ELISA, receptor coated, anti-human Fc HRP
Procedure: (§1) For bivalent Fc-fusion proteins, human IL2Rα, and human IL2Rβ were each immobilized in a 384 well plate at final concentration of 2 μg/mL in 1×PBS in total volume of 25 μL per well. The plate was incubated overnight at 4° C. followed by blocking with 80 μL of superblock per well for 1 hour. The purified engineered IL2 mutant Fc fusion protein at 100 nM was 3-fold serial diluted 12 times. Each dilution was added to IL2Rα and IL2Rβ wells in parallel. The engineered IL2 mutant binding was detected by adding 50 μL of anti-human Fc HRP diluted at 1:5000 in 1×PBST. In between each step, the plate was washed 3 times with 1×PBST in a plate washer. The plate was then developed with 25 μl of TMB substrate for 5 mins and stopped by adding 25 μl of 2N sulfuric acid. The plate was read at OD450 nm Biotek plate reader and the EC50 was analyzed with Prism 8.1 software.

| EC50 [nM] | relative activity IL2Rβ (EC50: fold) against EP085 [fold] | Binder |
| --- | --- | --- |
| 0.23 | 1280 | B1 |
| 0.41 | 727 | B2 |
| 0.28 | 1080 | B3 |
| 2.6 | 117 | B4 |
| 0.25 | 1190 | B5 |
| 2.1 | 142 | B6 |
| 0.2 | 1530 | B7 |

Biological target: T2, human IL2Rα
Test: ELISA, receptor coated, anti-human Fc HRP
Procedure: as §1

| EC50 [nM] | relative activity IL2Rα (EC50: fold) against EP085 [fold] | Binder |
| --- | --- | --- |
| 0.056 | -1.17 | B1 |
| 0.64 | -12.7 | B2 |
| 0.046 | 1.09 | B3 |
| 0.041 | 1.23 | B4 |
| 0.028 | 1.78 | B5 |
| 0.041 | 1.24 | B6 |
| 0.087 | -1.73 | B7 |

Biological target: T2, human IL2Rα
Test: SPR, IL2Rα captured on Protein A chip, IL2 at 100 nM
Procedure: The binding kinetics of IL2Rα-reduced binding clones to IL2Rα was assessed utilizing SPR technology with a Biacore T200, software version 2.0. For each cycle, 1 ug/mL of human IL2Rα was captured for 60 seconds at a flow rate of 10 uL/min on flow cell 2 in 1×HBSP buffer on a Protein A sensor chip. 100 nM of each HIS and Flag tag purified IL2 mutant was injected onto both the reference flow cell 1 and IL2Rα captured flow cell 2 for 150 seconds at a flow rate of 30 uL/min followed by washing for 300 seconds. The flow cells were then regenerated with Glycine pH 2.0 for 60 seconds at a flow rate of 30 uL/min. A HBSP+ buffer was included with each sample as a baseline control. The assay was set up in a 96-well format. The kinetics data was analyzed with Biacore T200 evaluation software 3.0. The specific binding response unit was derived from subtraction of binding to reference flow cell 1 from IL2Rα flow cell 2 and subtraction of buffer control. […] Relative response (RU) was determined for each IL2Rα-reduced binding clone (FIG. 4, Table 3).

| RU (at 100 nM) [RU] | Relevant binding to WT IL2 (%) | Binder |
| --- | --- | --- |
| 2.4 | 1.69 | B8 |
| 2.7 | 1.9 | B9 |
| 2.1 | 1.48 | B10 |
| 2.4 | 1.69 | B11 |
| 2.6 | 1.83 | B12 |
| 3 | 2.11 | B13 |

Biological target: T1, human IL2Rβ
Test: SPR, receptor captured on Protein A chip, E. coli-produced IL2
Procedure: (§2) The assay was run with Biacore T200 control software version 2.0. For each cycle, 1 μg/mL of human IL2Rβ or IL2Rα was captured for 60 seconds at flow rate of 10 μL/min on flow cell 2 in 1×HBST buffer on Protein A sensor chip. Two-fold serial diluted HIS tag purified engineered IL2 mutant was injected onto both reference flow cell 1 and IL2Rβ or IL2Rα captured flow cell 2 for 150 seconds at flow rate of 30 μL/min followed by washing for 300 seconds. The flow cells were then regenerated with Glycine pH 2 for 40 seconds at a flow rate of 30 μL/mins. Eight concentration points from 0 to 100 nM were assayed for each IL2Rβ agonist clone 96-well plate format. The kinetics data was analyzed with Biacore T200 evaluation software 3000. The specific binding response unit was derived from subtraction of binding to reference flow cell 1 from target flow cell 2.

| Kd [nM] | koff [s⁻¹] | kon [M⁻¹ s⁻¹] | relative activity IL2Rβ (KD: fold) against WT IL2 [fold] | Binder |
| --- | --- | --- | --- | --- |
| 2.37 | 0.00273 | 1.15e+06 | 1830 | B14 |
| 0.885 | 0.0054 | 6.1e+06 | 4910 | B15 |
| 3.1 | 0.00254 | 819000 | 1400 | B16 |

Biological target: T2, human IL2Rα
Test: as above
Procedure: as §2

| Kd [nM] | relative activity IL2Rα (KD: fold) against WT IL2 [fold] | Binder |
| --- | --- | --- |
| 101 | -10.6 | B14 |
| 12.6 | -1.3 | B15 |
| 481 | -50.6 | B16 |

Biological target: T2, human IL2Rα
Test: IL2Rα binding ELISA with E. coli culture supernatant of the clone; hFc bar as control (Example 2)

| Binder | binding result |
| --- | --- |
| B8 | no binding (tested: supernatant, concentration not given) |
| B9 | no binding (tested: supernatant, concentration not given) |
| B10 | no binding (tested: supernatant, concentration not given) |
| B11 | no binding (tested: supernatant, concentration not given) |
| B12 | no binding (tested: supernatant, concentration not given) |
| B13 | no binding (tested: supernatant, concentration not given) |
